# Results published in publication PMC4831024.
# Target: Ku70/Ku80ΔC heterodimer, P12956;P13010
# Assay: fluorescence polarisation
# Conditions: read at the highest Ku concentration, about 14 µM KuΔC; 100 nM fluorescein-labeled peptide; room temperature; 20 mM HEPES pH 7.5, 200 mM NaCl, 0.5 mM TCEP; parent: est. 190; read off a plot
substance,measurement,value
fluorescein-labelled WRN-nA peptide (N-terminal KBM of WRN) W18A,response,19 millidegrees
